“And” between values parts separate entries of the source, which are not always exact repeats. Identical values can stand only once. Like-named read-outs stand apart in the source and are kept apart here.
How the values were obtained:
DLL4 [1] = target: T1, DLL4 (human, UniProt Q9NR61); assay: SPR
DLL4 [2] = target: T1, DLL4; assay: ELISA
DLL4 [3] = target: T1, DLL4; assay: competition
DLL4 [4] = target: T1, DLL4; assay: ELISA; remark: listed apart in the source
DLL4 [5] = target: T1, DLL4; assay: ELISA; remark: listed apart in the source
IGF2 [6] = target: T2, IGF2 (human, UniProt P01344); assay: ELISA
IGF2 [7] = target: T2, IGF2; assay: ELISA; remark: listed apart in the source
IGF1 [8] = target: T3, IGF1 (human, UniProt P05019); assay: SPR
IGF1 [9] = target: T3, IGF1; assay: ELISA
IGF1 [10] = target: T3, IGF1; assay: ELISA; remark: listed apart in the source
IGF2 [11] = target: T2, IGF2; assay: SPR
CD22 = CD22 (human, UniProt P20273); assay: ELISA
RON [12] = target: T4, RON (human, UniProt Q04912); assay: ELISA
RON [13] = target: T4, RON; assay: SPR
RON [14] = target: T4, RON; assay: ELISA; remark: listed apart in the source
HGF [15] = target: T5, HGF (human, UniProt P14210); assay: competition
T5 sequence (P14210 32-728): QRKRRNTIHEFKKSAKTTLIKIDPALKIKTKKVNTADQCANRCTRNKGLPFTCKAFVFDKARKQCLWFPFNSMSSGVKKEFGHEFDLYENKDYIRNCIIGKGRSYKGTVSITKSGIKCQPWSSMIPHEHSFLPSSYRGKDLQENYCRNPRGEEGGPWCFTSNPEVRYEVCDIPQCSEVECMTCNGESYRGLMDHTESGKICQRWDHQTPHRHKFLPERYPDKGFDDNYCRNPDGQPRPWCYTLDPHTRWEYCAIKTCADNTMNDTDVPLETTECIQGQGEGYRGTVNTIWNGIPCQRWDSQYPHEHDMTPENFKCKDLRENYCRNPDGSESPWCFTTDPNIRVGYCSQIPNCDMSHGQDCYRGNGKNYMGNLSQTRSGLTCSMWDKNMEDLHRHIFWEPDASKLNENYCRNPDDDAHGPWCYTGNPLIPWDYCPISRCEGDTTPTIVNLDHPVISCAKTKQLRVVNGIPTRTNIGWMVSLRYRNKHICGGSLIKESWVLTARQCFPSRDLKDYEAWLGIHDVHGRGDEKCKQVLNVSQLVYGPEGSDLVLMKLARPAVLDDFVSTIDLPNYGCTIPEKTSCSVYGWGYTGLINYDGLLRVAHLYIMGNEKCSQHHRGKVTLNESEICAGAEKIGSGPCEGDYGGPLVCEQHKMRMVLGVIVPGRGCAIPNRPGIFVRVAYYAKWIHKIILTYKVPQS

HGF [16] = target: T5, HGF; assay: SPR
HGF [17] = target: T5, HGF; assay: ELISA
HGF [18] = target: T5, HGF; assay: ELISA; remark: listed apart in the source
NRP1 [19] = target: T6, NRP1 (human, UniProt O14786); assay: SPR
NRP1 [20] = target: T6, NRP1; assay: ELISA
CD80 = target: T7, CD80 (human, UniProt P33681); assay: ELISA
T7 chain: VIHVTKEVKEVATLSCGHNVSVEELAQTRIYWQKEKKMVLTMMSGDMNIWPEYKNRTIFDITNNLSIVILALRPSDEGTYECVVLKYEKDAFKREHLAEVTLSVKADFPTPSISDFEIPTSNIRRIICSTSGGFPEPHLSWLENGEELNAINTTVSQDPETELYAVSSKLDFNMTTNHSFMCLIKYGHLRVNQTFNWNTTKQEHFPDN

T1 sequence (Q9NR61 27-524): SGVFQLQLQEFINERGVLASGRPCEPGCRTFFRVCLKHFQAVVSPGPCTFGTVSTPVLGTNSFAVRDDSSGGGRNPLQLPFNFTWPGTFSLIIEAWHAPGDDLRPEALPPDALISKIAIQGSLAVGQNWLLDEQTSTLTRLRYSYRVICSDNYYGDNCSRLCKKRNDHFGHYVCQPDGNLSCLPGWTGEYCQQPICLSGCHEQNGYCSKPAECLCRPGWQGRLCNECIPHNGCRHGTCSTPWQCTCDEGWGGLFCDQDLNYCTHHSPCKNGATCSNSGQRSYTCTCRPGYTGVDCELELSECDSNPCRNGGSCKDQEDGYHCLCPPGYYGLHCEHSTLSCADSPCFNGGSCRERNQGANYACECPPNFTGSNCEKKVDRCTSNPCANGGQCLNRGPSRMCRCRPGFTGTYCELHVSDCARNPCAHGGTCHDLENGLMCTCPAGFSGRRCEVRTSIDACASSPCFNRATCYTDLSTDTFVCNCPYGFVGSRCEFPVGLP

B1: AB015 (antibody)
chain 1: EVQLVESGGGLVQPGGSLRLSCAASGFTFTDNWISWVRQAPGKGLEWVGYISPNSGFTYYADSVKGRFTISADTSKNTAYLQMNSLRAEDTAVYYCARDNFGGYFDYWGQGTLVTVSS
chain 2: DIQMTQSPSSLSASVGDRVTITCRASQDVSTAVAWYQQKPGKAPKLLIYSASFLYSGVPSRFSGSGSGTDFTLTISSLQPEDFATTYYCQQSYTGTVTFGQGTKVEIKR
DLL4 [1]
  Kd: 0.414 nM
DLL4 [2]
  EC50: 0.31 nM
DLL4 [3]
  IC50: 0.37 nM and 0.4 nM
DLL4 [4]
  EC50: 0.03 nM

B2: DVD043 DLL4 arm (antibody)
chain 1: EVQLVESGGGLVQPGGSLRLSCAASGFTFTDNWISWVRQAPGKGLEWVGYISPNSGFTYYADSVKGRFTISADTSKNTAYLQMNSLRAEDTAVYYCARDNFGGYFDYWGQGTLVTVSS
chain 2: DIQMTQSPSSLSASVGDRVTITCRASQDVSTAVAWYQQKPGKAPKLLIYSASFLYSGVPSRFSGSGSGTDFTLTISSLQPEDFATTYYCQQSYTGTVTFGQGTKVEIKR
modifications: DVD-Ig inner
DLL4 [1]
  Kd: 2.32 nM
DLL4 [2]
  EC50: 2.12 nM
DLL4 [5]
  EC50: 0.67 nM
DLL4 [3]
  IC50: 13.1 nM
DLL4 [4]
  EC50: 0.5 nM

B3: DVD044 DLL4 arm (antibody)
chain 1: EVQLVESGGGLVQPGGSLRLSCAASGFTFTDNWISWVRQAPGKGLEWVGYISPNSGFTYYADSVKGRFTISADTSKNTAYLQMNSLRAEDTAVYYCARDNFGGYFDYWGQGTLVTVSS
chain 2: DIQMTQSPSSLSASVGDRVTITCRASQDVSTAVAWYQQKPGKAPKLLIYSASFLYSGVPSRFSGSGSGTDFTLTISSLQPEDFATTYYCQQSYTGTVTFGQGTKVEIKR
modifications: DVD-Ig outer
DLL4 [1]
  Kd: 0.347 nM
DLL4 [2]
  EC50: 0.53 nM
DLL4 [5]
  EC50: 0.25 nM
DLL4 [3]
  IC50: 0.5 nM
DLL4 [4]
  EC50: 0.06 nM

B4: DVD030 IGF1,2 arm (antibody, V domains shown)
VH: QVQLVQSGAEVKKPGASVKVSCKASGYTFTSYDINWVRQATGQGLEWMGWMNPNSGNTGYAQKFQGRVTMTRNTSISTAYMELSSLRSEDTAVYYCARDPYYYYYGMDVWGQGTTVTVSS
VL: QSVLTQPPSVSAAPGQKVTISCSGSSSNIENNHVSWYQQLPGTAPKLLIYDNNKRPSGIPDRFSGSKSGTSATLGITGLQTGDEADYYCETWDTSLSAGRVFGGGTKLTVLG
modifications: DVD-Ig outer
IGF2 [6]
  EC50: 5.5 nM
IGF2 [7]
  EC50: 5.49 nM
IGF1 [8]
  Kd: 0.292 nM
IGF1 [9]
  EC50: 1.8 nM
IGF1 [10]
  EC50: 1.75 nM
IGF2 [11]
  Kd: 0.00234 nM

B5: DVD029 IGF1,2 arm (antibody, V domains shown)
VH: QVQLVQSGAEVKKPGASVKVSCKASGYTFTSYDINWVRQATGQGLEWMGWMNPNSGNTGYAQKFQGRVTMTRNTSISTAYMELSSLRSEDTAVYYCARDPYYYYYGMDVWGQGTTVTVSS
VL: QSVLTQPPSVSAAPGQKVTISCSGSSSNIENNHVSWYQQLPGTAPKLLIYDNNKRPSGIPDRFSGSKSGTSATLGITGLQTGDEADYYCETWDTSLSAGRVFGGGTKLTVLG
modifications: DVD-Ig inner
IGF2 [6]
  EC50: 206 nM
IGF2 [7]
  EC50: 206 nM
IGF1 [8]
  Kd: 6.36 nM
IGF1 [9]
  EC50: 229 nM
IGF1 [10]
  EC50: 229 nM
IGF2 [11]
  Kd: 0.302 nM

B6: AB008 (antibody, V domains shown)
VH: QVQLVQSGAEVKKPGSSVKVSCKASGYTFTSYWLHWVRQAPGQGLEWIGYINPRNDYTEYNQNFKDKATITADESTNTAYMELSSLRSEDTAFYFCARRDITTFYWGQGTTVTVSS
VL: DIQLTQSPSSLSASVGDRVTMSCKSSQSVLYSANHKNYLAWYQQKPGKAPKLLIYWASTRESGVPSRFSGSGSGTDFTFTISSLQPEDIATYYCHQYLSSWTFGGGTKLEIKR
CD22
  EC50: 3.44 nM

B7: AB005 (antibody, V domains shown)
VH: EVQLVQSGGGLVKPGGSLRLSCAASGFTFSSYAMHWVRQAPGKGLEWVAVISYDGSNKYYADSVKGRFTISRDNSKNTLYLQMNSLRAEDTAVYYCARFSGWPNNYYYYGMDVWGQGTTVTVSS
VL: DVVMTQSPLSLPVTPGEPASISCRSSQSLLHSNGFNYVDWYLQKPGQSPHLLIYFGSYRASGVPDRFSGSGSGTDFTLKISRVEAEDVGVYYCMQALQTPPWTFGQGTKVEIRR
RON [12]
  EC50: 0.26 nM and 0.21 nM
RON [13]
  Kd: 20.2 nM and 20.1 nM
RON [14]
  EC50: 1.6 nM and 0.7 nM and 1.3 nM

B8: DVD045 HGF arm (antibody, V domains shown)
VH: QVQLVESGGGLVKPGGSLRLSCAASGFTFSDYYMSWIRQAPGKGLEWVSYISSSGSTIYYADSVKGRFTISRDNAKNSLYLQMNSLRAEDTAVYYCARDEYNSGWYVLFDYWGQGTLVTVSS
VL: DIQMTQSPSSVSASVGDRVTITCRASQGISSWLAWYQQKPGKAPNLLIYEASSLQSGVPSRFGGSGSGTDFTLTISSLQPEDFATYYCQQANGFPWTFGQGTKVEIKR
modifications: DVD-Ig inner
HGF [15]
  IC50: > 100 nM
HGF [16]
  Kd: 0.901 nM
HGF [17]
  EC50: 185 nM
HGF [18]
  EC50: > 100 nM

B9: AB016 (antibody, V domains shown)
VH: EVQLVESGGGLVQPGGSLRLSCAASGFSFSSEPISWVRQAPGKGLEWVSSITGKNGYTYYADSVKGRFTISADTSKNTAYLQMNSLRAEDTAVYYCARWGKKVYGMDVWGQGTLVTVSS
VL: DIQMTQSPSSLSASVGDRVTITCRASQSISSYLAWYQQKPGKAPKLLIYGASSRASGVPSRFSGSGSGTDFTLTISSLQPEDFATYYCQQYMSVPITFGQGTKVEIKR
NRP1 [19]
  Kd: 2.67 nM
NRP1 [20]
  EC50: 0.58 nM

B10: DVD050 NRP1 arm (antibody, V domains shown)
VH: EVQLVESGGGLVQPGGSLRLSCAASGFSFSSEPISWVRQAPGKGLEWVSSITGKNGYTYYADSVKGRFTISADTSKNTAYLQMNSLRAEDTAVYYCARWGKKVYGMDVWGQGTLVTVSS
VL: DIQMTQSPSSLSASVGDRVTITCRASQSISSYLAWYQQKPGKAPKLLIYGASSRASGVPSRFSGSGSGTDFTLTISSLQPEDFATYYCQQYMSVPITFGQGTKVEIKR
modifications: DVD-Ig outer
NRP1 [19]
  Kd: 1.44 nM
NRP1 [20]
  EC50: 0.46 nM

B11: DVD049 NRP1 arm (antibody, V domains shown)
VH: EVQLVESGGGLVQPGGSLRLSCAASGFSFSSEPISWVRQAPGKGLEWVSSITGKNGYTYYADSVKGRFTISADTSKNTAYLQMNSLRAEDTAVYYCARWGKKVYGMDVWGQGTLVTVSS
VL: DIQMTQSPSSLSASVGDRVTITCRASQSISSYLAWYQQKPGKAPKLLIYGASSRASGVPSRFSGSGSGTDFTLTISSLQPEDFATYYCQQYMSVPITFGQGTKVEIKR
modifications: DVD-Ig inner
NRP1 [19]
  Kd: 1.28 nM
NRP1 [20]
  EC50: 0.5 nM

B12: AB007 (antibody, V domains shown)
VH: QVQLQESGPGLVKPSETLSLTCAVSGGSISGGYGWGWIRQPPGKGLEWIGSFYSSSGNTYYNPSLKSQVTISTDTSKNQFSLKLNSMTAADTAVYYCVRDRLFSVVGMVYNNWFDVWGPGVLVTVSS
VL: ESALTQPPSVSGAPGQKVTISCTGSTSNIGGYDLHWYQQLPGTAPKLLIYDINKRPSGISDRFSGSKSGTAASLAITGLQTEDEADYYCQSYDSSLNAQVFGGGTRLTVLG
CD80
  EC50: 0.77 nM

From patent US9029508 (dated 2015)
